# Columns and labels:
# [1] = molecular target: recombinant human TrkA protein (human) (UniProt P04629); experiment: NGF-blocking ELISA on coated human TrkA, 100 nM btNGF; mAb 0.04 nM
# [2] = molecular target: recombinant human TrkA protein (human) (UniProt P04629); experiment: NGF-blocking ELISA on coated human TrkA, 100 nM btNGF; mAb 2.5 nM
# [3] = molecular target: recombinant human TrkA protein (human) (UniProt P04629); experiment: NGF-blocking ELISA on coated human TrkA, 100 nM btNGF; mAb 0.16 nM
# [4] = molecular target: recombinant human TrkA protein (human) (UniProt P04629); experiment: NGF-blocking ELISA on coated human TrkA, 100 nM btNGF; mAb 20 nM
# [5] = molecular target: recombinant human TrkA protein (human) (UniProt P04629); experiment: NGF-blocking ELISA on coated human TrkA, 100 nM btNGF; mAb 0.02 nM
# [6] = molecular target: recombinant human TrkA protein (human) (UniProt P04629); experiment: NGF-blocking ELISA on coated human TrkA, 100 nM btNGF; mAb 0.31 (printed pM, two-fold series gives nM)
# [7] = molecular target: recombinant human TrkA protein (human) (UniProt P04629); experiment: NGF-blocking ELISA on coated human TrkA, 100 nM btNGF; mAb 10 nM
# [8] = molecular target: recombinant human TrkA protein (human) (UniProt P04629); experiment: NGF-blocking ELISA on coated human TrkA, 100 nM btNGF; mAb 0.08 nM
# [9] = molecular target: recombinant human TrkA protein (human) (UniProt P04629); experiment: NGF-blocking ELISA on coated human TrkA, 100 nM btNGF; mAb 0.63 nM
# [10] = molecular target: recombinant human TrkA protein (human) (UniProt P04629); experiment: NGF-blocking ELISA on coated human TrkA, 100 nM btNGF; mAb 5 nM
# [11] = molecular target: recombinant human TrkA protein (human) (UniProt P04629); experiment: NGF-blocking ELISA on coated human TrkA, 100 nM btNGF; mAb 1.25 nM
# [12] = molecular target: human TrkA receptor expressed in transfected 3T3 fibroblast cells (human) (UniProt P04629); experiment: cell-based or functional assay
# [13] = molecular target: TrkA in rat brain, dorsal root ganglia and skin tissue (rat) (UniProt P35739); experiment: cell-based or functional assay
# [14] = molecular target: rat TrkA receptor expressed in transfected HEK293 cells (rat) (UniProt P35739); experiment: cell-based or functional assay
# Chain of rat TrkA receptor expressed in transfected HEK293 cells (rat) (P35739 33-799): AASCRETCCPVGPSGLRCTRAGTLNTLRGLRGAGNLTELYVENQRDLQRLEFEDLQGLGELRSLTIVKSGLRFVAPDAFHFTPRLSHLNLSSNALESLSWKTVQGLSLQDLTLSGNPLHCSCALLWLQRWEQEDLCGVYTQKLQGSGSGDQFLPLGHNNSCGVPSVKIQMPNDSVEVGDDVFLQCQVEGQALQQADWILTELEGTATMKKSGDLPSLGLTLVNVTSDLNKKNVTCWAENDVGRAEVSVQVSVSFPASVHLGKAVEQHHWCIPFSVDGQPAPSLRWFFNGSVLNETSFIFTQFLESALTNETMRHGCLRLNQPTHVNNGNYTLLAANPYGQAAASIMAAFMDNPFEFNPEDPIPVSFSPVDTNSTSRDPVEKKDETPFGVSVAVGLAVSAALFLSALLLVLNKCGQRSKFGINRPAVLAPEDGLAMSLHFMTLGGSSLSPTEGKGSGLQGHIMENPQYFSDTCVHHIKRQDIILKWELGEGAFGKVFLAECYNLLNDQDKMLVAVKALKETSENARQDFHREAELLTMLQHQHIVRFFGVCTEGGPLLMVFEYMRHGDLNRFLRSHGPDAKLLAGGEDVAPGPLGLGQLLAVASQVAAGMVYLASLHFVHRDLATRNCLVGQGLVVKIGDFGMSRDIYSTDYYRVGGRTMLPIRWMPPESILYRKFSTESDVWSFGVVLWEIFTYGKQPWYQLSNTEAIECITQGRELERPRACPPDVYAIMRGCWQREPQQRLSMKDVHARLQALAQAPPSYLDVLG
# Chain of human TrkA receptor expressed in transfected 3T3 fibroblast cells (human) (P04629 33-796): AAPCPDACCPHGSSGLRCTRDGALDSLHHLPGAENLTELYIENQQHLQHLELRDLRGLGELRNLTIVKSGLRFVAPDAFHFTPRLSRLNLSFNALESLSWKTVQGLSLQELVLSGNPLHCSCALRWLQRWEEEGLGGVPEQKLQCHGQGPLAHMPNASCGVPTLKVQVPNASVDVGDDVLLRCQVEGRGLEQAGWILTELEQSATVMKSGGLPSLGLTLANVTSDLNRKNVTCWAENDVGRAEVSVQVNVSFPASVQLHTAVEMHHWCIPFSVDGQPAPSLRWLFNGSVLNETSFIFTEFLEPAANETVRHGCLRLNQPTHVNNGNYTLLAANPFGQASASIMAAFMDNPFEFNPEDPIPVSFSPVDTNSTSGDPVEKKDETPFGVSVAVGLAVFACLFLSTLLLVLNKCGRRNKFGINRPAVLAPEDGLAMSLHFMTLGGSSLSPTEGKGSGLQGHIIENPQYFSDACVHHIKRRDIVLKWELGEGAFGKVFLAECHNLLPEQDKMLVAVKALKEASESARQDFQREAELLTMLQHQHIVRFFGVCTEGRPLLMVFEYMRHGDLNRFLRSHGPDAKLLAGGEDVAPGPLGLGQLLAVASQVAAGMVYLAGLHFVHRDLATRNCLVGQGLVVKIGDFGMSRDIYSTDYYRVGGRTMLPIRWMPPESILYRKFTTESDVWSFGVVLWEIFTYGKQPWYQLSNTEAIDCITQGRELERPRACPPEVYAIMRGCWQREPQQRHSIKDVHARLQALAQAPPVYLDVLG
# Chain of recombinant human TrkA protein (human) (P04629 other isoform, or with tags, fused parts or gaps limits assumed): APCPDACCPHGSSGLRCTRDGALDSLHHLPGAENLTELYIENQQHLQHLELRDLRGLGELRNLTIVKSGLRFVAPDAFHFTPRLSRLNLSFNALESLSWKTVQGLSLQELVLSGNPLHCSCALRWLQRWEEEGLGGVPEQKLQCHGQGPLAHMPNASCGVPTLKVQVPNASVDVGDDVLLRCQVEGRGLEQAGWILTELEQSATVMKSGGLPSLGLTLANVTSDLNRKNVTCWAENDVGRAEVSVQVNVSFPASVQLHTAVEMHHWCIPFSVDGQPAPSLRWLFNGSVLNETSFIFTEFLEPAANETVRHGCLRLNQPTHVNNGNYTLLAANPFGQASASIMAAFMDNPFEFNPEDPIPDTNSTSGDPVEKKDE
# Chain of rat β-NGF (P25427 122-241 limits assumed): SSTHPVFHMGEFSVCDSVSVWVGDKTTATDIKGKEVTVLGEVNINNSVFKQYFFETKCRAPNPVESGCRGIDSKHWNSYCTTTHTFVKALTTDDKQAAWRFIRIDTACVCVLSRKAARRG
# Chain of TrkA in rat brain, dorsal root ganglia and skin tissue (rat) (P35739 33-799): as the sequence (P35739 33-799) above
Substance,Absorbance 450 nm [1],Absorbance 450 nm [2],Absorbance 450 nm [3],Absorbance 450 nm [4],Absorbance 450 nm [5],Absorbance 450 nm [6],Absorbance 450 nm [7],Absorbance 450 nm [8],Absorbance 450 nm [9],Absorbance 450 nm [10],Absorbance 450 nm [11],other results
IgG1 isotype control antibody,1.1,1.17,1.12,1.13,1.14,1.19,0.97,1.16,1.14,1.1,1.04,–
IgG4 isotype control antibody,1.15,1.07,1.13,1.12,1.13,1.14,1.11,1.14,1.13,1.08,1.03,"pTrkA counts per second, +mAb 1 hr (1 uM), no NGF (counts per second) [12]: 28400; pTrkA counts per second, +mAb 24 hr (1 uM), no NGF (counts per second) [12]: 28700; pTrkA counts per second, NGF + mAb 1 hr (1 uM) (counts per second) [12]: 238000; pTrkA counts per second, NGF + mAb 24 hr (1 uM) (counts per second) [12]: 290000; pTrkA counts per second, DRG, NGF stimulated, 10 mg/kg SC (counts per second) [13]: 483000; pTrkA counts per second, DRG, baseline, 10 mg/kg SC (counts per second) [13]: 109000; pTrkA counts per second, brain, NGF stimulated, 10 mg/kg SC (counts per second) [13]: 507000; pTrkA counts per second, brain, baseline, 10 mg/kg SC (counts per second) [13]: 70600; pTrkA counts per second, skin, NGF stimulated, 10 mg/kg SC (counts per second) [13]: 33300; pTrkA counts per second, skin, baseline, 10 mg/kg SC (counts per second) [13]: 14500"
rat β-NGF (from UniProt P25427 122-241) (ligand),–,–,–,–,–,–,–,–,–,–,–,"pTrkA counts per second, 10 ug/mL NGF alone (mAb A column) (counts per second) [14]: 2.13e+06; pTrkA counts per second, 10 ug/mL NGF alone (mAb B column) (counts per second) [14]: 4.29e+06; pTrkA counts per second, 10 ug/mL NGF alone (mAb C column) (counts per second) [14]: 2.81e+06; pTrkA counts per second, 10 ug/mL NGF alone (mAb D column) (counts per second) [14]: 3.25e+06; pTrkA counts per second, 10 ug/mL NGF alone (mAb E column) (counts per second) [14]: 2.76e+06"
